Measurements published in patent US20220396626A1 (GUANGZHOU BIO GENE TECHNOLOGY, published 2022).
Residue numbers refer to the chain shown, from its start. Names may count otherwise.

T1: human CLL1 ECD-His (human CLL1 extracellular domain with His tag) (human, UniProt Q5QGZ9 65-265)
T1 construct: also called antigen human CLL1 ECD-His; antigen CLL1; not shown: His tag
T1 sequence: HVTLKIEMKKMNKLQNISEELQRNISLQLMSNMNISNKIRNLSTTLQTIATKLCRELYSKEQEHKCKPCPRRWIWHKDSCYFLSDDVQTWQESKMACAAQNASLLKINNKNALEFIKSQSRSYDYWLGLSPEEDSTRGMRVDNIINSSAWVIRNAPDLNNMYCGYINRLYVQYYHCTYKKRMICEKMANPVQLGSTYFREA

T2: Recombinant Cynomolgus Monkey CLL-1 Protein (his), Acro CLA-H5263 (cynomolgus monkey, UniProt A0A2K5WXQ4 71-271)
T2 construct: also called Analyte 2
T2 sequence: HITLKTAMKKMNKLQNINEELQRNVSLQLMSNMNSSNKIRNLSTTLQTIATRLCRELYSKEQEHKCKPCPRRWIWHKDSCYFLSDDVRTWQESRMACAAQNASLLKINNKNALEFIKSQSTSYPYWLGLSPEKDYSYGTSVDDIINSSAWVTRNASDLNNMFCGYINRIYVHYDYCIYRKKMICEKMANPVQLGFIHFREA

T3: Recombinant Human CLL-1 Protein (his), Acro CLA-H5245 (human, UniProt Q5QGZ9 65-265)
T3 construct: also called Analyte 1; not shown: his tag
T3 sequence (looked up): T1 sequence

T4: human CLL1 on the surface of transfected cells (HEK293-CLL1; HEK-293T membrane proteome array) (human, UniProt Q5QGZ9 1-265)
T4 construct: whole, on cells; also called HEK293-CLL1 cells; CLL1 target antigen
T4 sequence (looked up): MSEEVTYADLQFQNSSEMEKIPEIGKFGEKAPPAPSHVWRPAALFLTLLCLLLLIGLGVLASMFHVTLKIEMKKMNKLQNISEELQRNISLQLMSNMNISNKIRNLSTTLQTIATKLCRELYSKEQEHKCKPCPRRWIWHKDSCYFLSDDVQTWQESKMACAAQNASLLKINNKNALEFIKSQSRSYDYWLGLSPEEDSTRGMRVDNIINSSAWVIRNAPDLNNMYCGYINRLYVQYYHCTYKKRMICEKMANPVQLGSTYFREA

B1: humanized antibody hz27H4H1L1 (antibody, V domains shown)
VH: EVQLVQSGAEVKKPGASVKVSCKASGYTFTGYHMHWVRQAPGQRLEWMGRINPYNGAASHNQKFKDRVTITRDTSASTAYMELSSLRSEDTAVYYCARGWDYDGGYYAMDYWGQGTLVTVSS
VL: DIQMTQSPSSLSASVGDRVTITCKSSQSLLYSDNQKNYLAWYQQKPGKAPKLLIYWASTRESGVPSRFSGSGSGTDFTLTISSLQPEDFATYYCQQYYTYPYTFGQGTKLEIK
notes: Heavy chain variable region hz27H4H1 with light chain variable region hz27H4L1; also called h27H4H1L1 (complete antibody)
B2: humanized antibody hz27H4H1L2 (antibody, V domains shown)
VH: B1 VH
VL: DIVMTQSPLSLPVTPGEPASISCKSSQSLLYSDNQKNYLAWYLQKPGQSPQLLIYWASTRESGVPDRFSGSGSGTDFTLKISRVEAEDVGVYYCQQYYTYPYTFGQGTKLEIK
notes: Heavy chain variable region hz27H4H1 with light chain variable region hz27H4L2; also called h27H4H1L2 (complete antibody)
B3: humanized antibody hz27H4H1L3 (antibody, V domains shown)
VH: B1 VH
VL: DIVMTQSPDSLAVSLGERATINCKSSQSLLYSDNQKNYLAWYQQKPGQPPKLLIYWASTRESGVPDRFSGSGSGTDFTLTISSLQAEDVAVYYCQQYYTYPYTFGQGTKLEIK
notes: Heavy chain variable region hz27H4H1 with light chain variable region hz27H4L3
B4: chimeric antibody ch27H4 (antibody, V domains shown)
VH: EVQLQQSGPELVKPGASVKISCKASGYSFTGYHMHWVKQSHVKSLEWIGRINPYNGAASHNQKFKDKATLTVDKSSSTAYMELHSLTSEDSAVYYCARGWDYDGGYYAMDYWGQGTSVTVSS
VL: DIVMSQSPSSLAVSVGEKVTMSCKSSQSLLYSDNQKNYLAWYQQKPGQSPKLLIYWASTRESGVPDRFTGSGSGTDFTLTISSVKAEDLAVYYCQQYYTYPYTFGGGTKLEIK
notes: also called parent antibody
B5: anti-human CLL-1 control antibody 1075.7 (antibody)
scFv: ENVLTQSPAIMSASPGEKVTMTCRASSNVISSYVHWYQQRSGASPKLWIYSTSNLASGVPARFSGSGSGTSYSLTISSVEAEDAATYYCQQYSGYPLTFGAGTKLELGGGGSGGGGSGGGGSDIQLQESGPGLVKPSQSLSLTCSVTGYSITSAYYWNWIRQFPGNKLEWMGYISYDGRNNYNPSLKNRISITRDTSKNQFFLKLNSVTTEDTATYYCAKEGDYDVGNYYAMDYWGQGTSVTVSS
notes: it was captured by anti-human IgG sensors and detected with anti-human IgG-Fc, so a human Fc was present; also called ch1075.7
B6: 19C1-scFv-hFc (Fc fusion)
scFv: QIVLTQSPAIMSASPGEKVTMTCSASSSVSYMYWYQQKPGSSPRLLIFDTSNLASGVPVRFSGSGSGTSYSLTISRMEAEDAATYYCQQWSSYPLTFGAGTKLELKGGGGSGGGGSGGGGSQVQLQQSGAELMKPGASVKISCKATGYTFSSYWIEWVKQRPGHGLEWIGEIFPGSGSIKYNEKFKGKATFTADTSSNTAYMQLSSLTSEDSAVHYCARGGTYNDYSLFDYWGQGTTLTVSS
notes: VL-(G4S)3-VH structure with C-terminal human IgG1 Fc; also called Anti-CLL1 scFv-hIgG1; not shown: human IgG1 Fc fused at the C-terminus
B7: 27H4-scFv-hFc (Fc fusion)
scFv: DIVMSQSPSSLAVSVGEKVTMSCKSSQSLLYSDNQKNYLAWYQQKPGQSPKLLIYWASTRESGVPDRFTGSGSGTDFTLTISSVKAEDLAVYYCQQYYTYPYTFGGGTKLEIKGGGGSGGGGSGGGGSEVQLQQSGPELVKPGASVKISCKASGYSFTGYHMHWVKQSHVKSLEWIGRINPYNGAASHNQKFKDKATLTVDKSSSTAYMELHSLTSEDSAVYYCARGWDYDGGYYAMDYWGQGTSVTVSS
notes: as for B6
B8: 23D7-scFv-hFc (Fc fusion)
scFv: QIVLTQSPAIMSASPGEKVTMTCSASSSVSYIYWYQQKPGSSPGLLIYDTSNLASGVPVRFSGSGSGTSYSLTISRMEAEDAATYYCQQWSSFPPTFGAGTKLELKGGGGSGGGGSGGGGSQVQLQQPGSDLVRPGASVKLSCKASGYTFTRYWMHWVKQRPGHGLEWIGYIYPGSGTSNYDEKFKSKATLTVDTSSSTAYMQLSSLTSEDSAVYYCTREARYTMDYWGQGTSVTVSS
notes: as for B6
B9: chimeric antibody ch19C1 (antibody, V domains shown)
VH: QVQLQQSGAELMKPGASVKISCKATGYTFSSYWIEWVKQRPGHGLEWIGEIFPGSGSIKYNEKFKGKATFTADTSSNTAYMQLSSLTSEDSAVHYCARGGTYNDYSLFDYWGQGTTLTVSS
VL: QIVLTQSPAIMSASPGEKVTMTCSASSSVSYMYWYQQKPGSSPRLLIFDTSNLASGVPVRFSGSGSGTSYSLTISRMEAEDAATYYCQQWSSYPLTFGAGTKLELK
B10: chimeric antibody ch23D7 (antibody, V domains shown)
VH: QVQLQQPGSDLVRPGASVKLSCKASGYTFTRYWMHWVKQRPGHGLEWIGYIYPGSGTSNYDEKFKSKATLTVDTSSSTAYMQLSSLTSEDSAVYYCTREARYTMDYWGQGTSVTVSS
VL: B9 VL with M32I, R44G, F48Y, Y93F, L95P

Target: T1, human CLL1 ECD-His (human CLL1 …)
Test: BLI (ForteBio), antibody on AHC sensor, 60 nM human CLL1 ECD-His, 1:1 model
Description: In short, 4 μg/mL antibody was loaded on the anti-human IgG capture (AHC) biosensor, the sensor was equilibrated offline for 30 min in the assay buffer, and the online monitoring was used for 60 s to establish the baseline; the antibody-loaded sensor was incubated with the 60 nM antigen human CLL1 ECD-His for 3 min, then transferred to the assay buffer, and the dissociation rate was measured after 3 min; the kinetic analysis was performed using a 1:1 binding model.

Kd | Response | koff | kon | Binder
2.29 nM | 0.612 | 0.000862 s⁻¹ | 377000 M⁻¹ s⁻¹ | B1
2.21 nM | 0.726 | 0.000976 s⁻¹ | 441000 M⁻¹ s⁻¹ | B2
2.49 nM | 0.722 | 0.00109 s⁻¹ | 438000 M⁻¹ s⁻¹ | B3
3.88 nM | 0.597 | 0.00124 s⁻¹ | 320000 M⁻¹ s⁻¹ | B4
6.76 nM | 0.219 | 0.000997 s⁻¹ | 148000 M⁻¹ s⁻¹ | B5

Target: T2, Recombinant Cynomolgus Monkey CLL-1 …
Test: SPR, antibody captured on Protein A chip, cynomolgus CLL-1 as analyte

binding result | Binder
no binding (tested: 50 nM) | B1
no binding (tested: 50 nM) | B2
no binding (tested: 50 nM) | B6
no binding (tested: 50 nM) | B7
no binding (tested: 50 nM) | B8

Target: T3, Recombinant Human CLL-1 Protein (his), …
Test: SPR, antibody captured on Protein A chip, recombinant human CLL-1 as analyte 3.125-50 nM, 1:1 model

Kd | koff | kon | Binder
1.12 nM | 0.00549 s⁻¹ | 4.91e+06 M⁻¹ s⁻¹ | B1
1.08 nM | 0.00544 s⁻¹ | 5.04e+06 M⁻¹ s⁻¹ | B2
5.75 nM | 0.00509 s⁻¹ | 886000 M⁻¹ s⁻¹ | B6
3.06 nM | 0.0126 s⁻¹ | 4.11e+06 M⁻¹ s⁻¹ | B7
110 nM | 0.0322 s⁻¹ | 293000 M⁻¹ s⁻¹ | B8

Target: T4, human CLL1 on the surface of …
Test: flow cytometry on HEK293 cells overexpressing CLL1
Source text: In the present example, flow cytometry was used to detect the binding of antibodies hz27H4H1L1, hz27H4H1L2 and CLL1 on HEK293 cells.

EC50 | Binder
0.262 µg/mL | B1
0.321 µg/mL | B2
0.358 µg/mL | B4
0.245 µg/mL | B5

Target: T1, human CLL1 ECD-His (human CLL1 …)
Test: BLI (ForteBio), antibody on AHC sensor, 100 nM human CLL1 ECD-His, 1:1 model
Description: In short, the antibody was loaded on the anti-human IgG capture (AHC) biosensor, the sensor was equilibrated in the assay buffer for 30 min offline, and monitored online for 60 s to establish the baseline; the antibody-loaded sensor was incubated with the 100 nM antigen human CLL1 ECD-His for 5 min, then transferred to the assay buffer, and the dissociation rate was measured after 5 min; the kinetic analysis was carried out using a 1:1 combination model.

Kd | Response | koff | kon | Binder
3.83 nM | 0.634 | 0.00101 s⁻¹ | 265000 M⁻¹ s⁻¹ | B4
0.414 nM | 0.236 | 4.48e-05 s⁻¹ | 108000 M⁻¹ s⁻¹ | B5
10.9 nM | 0.619 | 0.00197 s⁻¹ | 180000 M⁻¹ s⁻¹ | B9
2.19 nM | 0.654 | 0.000284 s⁻¹ | 130000 M⁻¹ s⁻¹ | B10

Target: T4, human CLL1 on the surface of …
Test: flow cytometry on HEK293 cells overexpressing CLL1, FITC goat anti-human IgG-Fc secondary; controls on the sheet: Cells + Secondary Antibody 1029.8, Blank 1041.3
Description: In the present example, flow cytometry was used to detect the binding of antibodies ch23D7, ch27H4, and ch19C1 to CLL1 on HEK293 cells. The steps are as follows:
5×10⁵ HEK293 cells overexpressing CLL1 were resuspended in PBS+5% BSA and incubated at 4° C. for 30 min; antibodies of different concentrations (1 μg/mL˜0.01 μg/mL, 10-fold dilutions) were added and incubated at 4° C. for 60 min; after centrifugation and washing, a PBS+5% BSA solution containing FITC-labeled goat anti-human IgG-Fc secondary antibody (1:200, sigma, F9512) was added, and incubated on ice for 30 min in the dark; the cells were washed 3 times and then analyzed by flow cytometry;

MFI at 0.01ug/ml | MFI at 0.1ug/ml | MFI at 1ug/ml | Binder
3510 | 25200 | 163000 | B4
4580 | 35600 | 222000 | B5
4610 | 35900 | 163000 | B9
4690 | 34600 | 151000 | B10
